Experimental data taken from paper PMC3327698, “Binding Properties and Stability of the Ras-Association Domain of Rap1-GTP Interacting Adapter Molecule (RIAM)” (PLoS ONE, 2012).

T1: GST-RIAM150-502 (RA and PH domains) (human, UniProt Q7Z5R6 150-502)
T1 construct: Modified pGEX-4T3 vector with a TEV protease site; also called RA-PH domain pair; source: E. coli BL21 GOLD, purified (Glutathione Sepharose, SEC); not shown: GST, N-terminal, kept
T1 sequence (looked up): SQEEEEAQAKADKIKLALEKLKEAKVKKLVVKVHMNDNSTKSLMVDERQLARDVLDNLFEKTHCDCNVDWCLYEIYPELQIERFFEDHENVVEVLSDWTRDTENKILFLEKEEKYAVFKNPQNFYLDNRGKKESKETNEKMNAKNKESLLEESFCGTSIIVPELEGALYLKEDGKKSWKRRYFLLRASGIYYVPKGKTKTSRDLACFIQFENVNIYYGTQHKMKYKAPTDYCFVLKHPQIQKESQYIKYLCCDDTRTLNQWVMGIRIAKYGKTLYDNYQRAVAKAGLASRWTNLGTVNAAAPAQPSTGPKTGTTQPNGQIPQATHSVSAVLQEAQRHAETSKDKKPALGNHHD

B1: Rap1B (amino acids 1-167) (domain or fragment, UniProt P61224 1-167, looked up)
chain: MREYKLVVLGSGGVGKSALTVQFVQGIFVEKYDPTIEDSYRKQVEVDAQQCMLEILDTAGTEQFTAMRDLYMKNGQGFALVYSITAQSTFNDLQDLREQILRVKDTDDVPMILVGNKCDLEDERVVGKEQGQNLARQWNNCAFLESSAKSKINVNEIFYDLVRQINR
notes: small GTPase Rap1B, amino acids 1-167 (C-terminus excluded); loaded with Gpp(NH)p or GDP before the assay; One molecule for both nucleotide states; Construct pGEX-4T3/Rap1B came from A. Wittinghofer; also called Rap1B-Gpp(NH)p; Rap1B-GTP; source: E. coli BL21 GOLD, purified (Glutathione Sepharose, nucleotide exchange, SEC)
B2: GST-RIAM150-261 (RA domain) (domain or fragment, human, UniProt Q7Z5R6 150-261, looked up)
chain: SQEEEEAQAKADKIKLALEKLKEAKVKKLVVKVHMNDNSTKSLMVDERQLARDVLDNLFEKTHCDCNVDWCLYEIYPELQIERFFEDHENVVEVLSDWTRDTENKILFLEKE
notes: Modified pGEX-4T3 vector with a TEV protease site between GST and RIAM; also called RIAM RA domain construct; GST-RIAM-RA; source: E. coli BL21 GOLD, purified (Glutathione Sepharose, SEC); not shown: GST, N-terminal, kept

What was measured:
[1] = biological target: T1, GST-RIAM150-502 (RA and PH domains); assay: pull-down; quantitative: GST-RIAM on Glutathione Sepharose 4B; Rap1B-Gpp(NH)p at 0.05, 0.1, 0.3, 0.5, 0.7 and 1.0 µM; Buffer A; anti-Rap1 Western blot, densitometry, nonlinear regression (GraphPad Prism); details: both partners purified
[2] = biological target: B1; assay: as above; details: both partners purified

Row | Kd [1] | Kd [2] | Binder
1 | 700 ± 400 nM | – | B1
2 | – | 330 ± 90 nM | B2
